From patent publication US12679878B2, “CRF2 receptor agonists and their use in therapy” (SANOFI, priority 2020, dated 2026)
Starred links: 1 amine or outer side, 2 acyl side, 3 side chain; linkers in the order of their positions; H or OH if unused. Non-standard residues stand in square brackets, D forms with d. Groups on a side chain read outwards from the residue. No end group written: not given here. *: point of attachment. C18 diacid = O=C(O)CCCCCCCCCCCCCCCCC(=O)*; γGlu = O=C(O)[C@H](CCC(=O)[*:2])N[*:1]; AEEA = NCCOCCOCC(=O)O; Aib = CC(C)(N)C(=O)O

T1: anti-target CRF1R receptor (UniProt P34998 24-415, limits assumed)
T1 sequence (looked up): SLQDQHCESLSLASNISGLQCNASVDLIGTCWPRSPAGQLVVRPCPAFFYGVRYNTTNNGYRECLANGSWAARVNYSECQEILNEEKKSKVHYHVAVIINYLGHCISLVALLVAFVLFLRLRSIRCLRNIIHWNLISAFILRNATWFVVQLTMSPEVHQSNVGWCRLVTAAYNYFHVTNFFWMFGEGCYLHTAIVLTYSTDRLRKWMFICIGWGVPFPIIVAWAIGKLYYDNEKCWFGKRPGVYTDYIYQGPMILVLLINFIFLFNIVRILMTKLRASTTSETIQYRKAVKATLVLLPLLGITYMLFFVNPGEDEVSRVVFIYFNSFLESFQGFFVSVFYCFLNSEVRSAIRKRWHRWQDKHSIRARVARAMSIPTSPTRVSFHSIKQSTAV

T2: endogenous human CRF2 (NCI-H82 cells) (human, UniProt Q13324 20-411)
T2 sequence (looked up): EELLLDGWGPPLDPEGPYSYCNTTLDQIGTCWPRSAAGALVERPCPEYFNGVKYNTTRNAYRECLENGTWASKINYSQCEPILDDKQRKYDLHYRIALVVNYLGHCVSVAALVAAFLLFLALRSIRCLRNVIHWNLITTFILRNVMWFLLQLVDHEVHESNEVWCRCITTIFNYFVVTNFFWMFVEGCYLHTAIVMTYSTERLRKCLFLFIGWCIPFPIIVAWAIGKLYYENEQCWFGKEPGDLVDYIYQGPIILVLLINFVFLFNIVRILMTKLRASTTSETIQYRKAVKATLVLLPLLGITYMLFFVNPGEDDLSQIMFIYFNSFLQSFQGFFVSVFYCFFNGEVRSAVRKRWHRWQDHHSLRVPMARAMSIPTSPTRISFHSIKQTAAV


Experiments:
Assay in all cases: cell-based or functional assay
[1] = target: rat CRF2R α receptor (rat, UniProt P47866 20-411)
[2] = target: T1, anti-target CRF1R receptor
[3] = target: T2, endogenous human CRF2 (NCI-H82 cells)

| Binder | EC50 [nM], 0% HSA (cAMP, A7R5 cells) [1] [nM] | EC50[nM] 0% HSA (cAMP, CRF1R-overexpression CHO cells) [2] [nM] | Emax (%) (cAMP, CRF1R-overexpression CHO cells) [2] | EC50 [nM] (cAMP, NCI-H82 cells) [3] |
| --- | --- | --- | --- | --- |
| IVLSLD[dV]PIKLK([AEEA-AEEA-γGlu-C18 diacid])QILLKQERQKKQRQQAEKNKQILAQV-NH2 (N-terminus assumed; SMILES CC[C@H](C)[C@H](N)C(=O)N[C@H](C(=O)N[C@@H](CC(C)C)C(=O)N[C@@H](CO)C(=O)N[C@@H](CC(C)C)C(=O)N[C@@H](CC(=O)O)C(=O)N[C@@H](C(=O)N1CCC[C@H]1C(=O)N[C@H](C(=O)N[C@@H](CCCCN)C(=O)N[C@@H](CC(C)C)C(=O)N[C@@H](CCCCNC(=O)COCCOCCNC(=O)COCCOCCNC(=O)CC[C@H](NC(=O)CCCCCCCCCCCCCCCCC(=O)O)C(=O)O)C(=O)N[C@@H](CCC(N)=O)C(=O)N[C@H](C(=O)N[C@@H](CC(C)C)C(=O)N[C@@H](CC(C)C)C(=O)N[C@@H](CCCCN)C(=O)N[C@@H](CCC(N)=O)C(=O)N[C@@H](CCC(=O)O)C(=O)N[C@@H](CCCNC(=N)N)C(=O)N[C@@H](CCC(N)=O)C(=O)N[C@@H](CCCCN)C(=O)N[C@@H](CCCCN)C(=O)N[C@@H](CCC(N)=O)C(=O)N[C@@H](CCCNC(=N)N)C(=O)N[C@@H](CCC(N)=O)C(=O)N[C@@H](CCC(N)=O)C(=O)N[C@@H](C)C(=O)N[C@@H](CCC(=O)O)C(=O)N[C@@H](CCCCN)C(=O)N[C@@H](CC(N)=O)C(=O)N[C@@H](CCCCN)C(=O)N[C@@H](CCC(N)=O)C(=O)N[C@H](C(=O)N[C@@H](CC(C)C)C(=O)N[C@@H](C)C(=O)N[C@@H](CCC(N)=O)C(=O)N[C@H](C(N)=O)C(C)C)[C@@H](C)CC)[C@@H](C)CC)[C@@H](C)CC)C(C)C)C(C)C) [peptide of SEQ ID NO: 139] | 0.1 | > 1000 | 37.6 | 18 |
| IVLSLD[dV]PIKLK([AEEA-AEEA-γGlu-C18 diacid])QILLKQERQKKQREKAEKNKQILAQV-NH2 (N-terminus assumed; SMILES CC[C@H](C)[C@H](N)C(=O)N[C@H](C(=O)N[C@@H](CC(C)C)C(=O)N[C@@H](CO)C(=O)N[C@@H](CC(C)C)C(=O)N[C@@H](CC(=O)O)C(=O)N[C@@H](C(=O)N1CCC[C@H]1C(=O)N[C@H](C(=O)N[C@@H](CCCCN)C(=O)N[C@@H](CC(C)C)C(=O)N[C@@H](CCCCNC(=O)COCCOCCNC(=O)COCCOCCNC(=O)CC[C@H](NC(=O)CCCCCCCCCCCCCCCCC(=O)O)C(=O)O)C(=O)N[C@@H](CCC(N)=O)C(=O)N[C@H](C(=O)N[C@@H](CC(C)C)C(=O)N[C@@H](CC(C)C)C(=O)N[C@@H](CCCCN)C(=O)N[C@@H](CCC(N)=O)C(=O)N[C@@H](CCC(=O)O)C(=O)N[C@@H](CCCNC(=N)N)C(=O)N[C@@H](CCC(N)=O)C(=O)N[C@@H](CCCCN)C(=O)N[C@@H](CCCCN)C(=O)N[C@@H](CCC(N)=O)C(=O)N[C@@H](CCCNC(=N)N)C(=O)N[C@@H](CCC(=O)O)C(=O)N[C@@H](CCCCN)C(=O)N[C@@H](C)C(=O)N[C@@H](CCC(=O)O)C(=O)N[C@@H](CCCCN)C(=O)N[C@@H](CC(N)=O)C(=O)N[C@@H](CCCCN)C(=O)N[C@@H](CCC(N)=O)C(=O)N[C@H](C(=O)N[C@@H](CC(C)C)C(=O)N[C@@H](C)C(=O)N[C@@H](CCC(N)=O)C(=O)N[C@H](C(N)=O)C(C)C)[C@@H](C)CC)[C@@H](C)CC)[C@@H](C)CC)C(C)C)C(C)C) [peptide of SEQ ID NO: 138] | 0.26 | > 1000 | 4.38 | 8.4 |

The next lines start with the values.

| EC50 [nM], 0% HSA (cAMP, A7R5 cells) [1] [nM] | EC50[nM] 0% HSA (cAMP, CRF1R-overexpression CHO cells) [2] [nM] | Emax (%) (cAMP, CRF1R-overexpression CHO cells) [2] | EC50 [nM] (cAMP, NCI-H82 cells) [3] | Binder |
| --- | --- | --- | --- | --- |
| 2.53 | > 1000 | 4.54 | 13 | IVLSLD[dV]PIGLK([AEEA-AEEA-γGlu-C18 diacid])QILLKQERQKK[Aib]REQAETNKQILAQV-NH2 (N-terminus assumed; SMILES CC[C@H](C)[C@H](N)C(=O)N[C@H](C(=O)N[C@@H](CC(C)C)C(=O)N[C@@H](CO)C(=O)N[C@@H](CC(C)C)C(=O)N[C@@H](CC(=O)O)C(=O)N[C@@H](C(=O)N1CCC[C@H]1C(=O)N[C@H](C(=O)NCC(=O)N[C@@H](CC(C)C)C(=O)N[C@@H](CCCCNC(=O)COCCOCCNC(=O)COCCOCCNC(=O)CC[C@H](NC(=O)CCCCCCCCCCCCCCCCC(=O)O)C(=O)O)C(=O)N[C@@H](CCC(N)=O)C(=O)N[C@H](C(=O)N[C@@H](CC(C)C)C(=O)N[C@@H](CC(C)C)C(=O)N[C@@H](CCCCN)C(=O)N[C@@H](CCC(N)=O)C(=O)N[C@@H](CCC(=O)O)C(=O)N[C@@H](CCCNC(=N)N)C(=O)N[C@@H](CCC(N)=O)C(=O)N[C@@H](CCCCN)C(=O)N[C@@H](CCCCN)C(=O)NC(C)(C)C(=O)N[C@@H](CCCNC(=N)N)C(=O)N[C@@H](CCC(=O)O)C(=O)N[C@@H](CCC(N)=O)C(=O)N[C@@H](C)C(=O)N[C@@H](CCC(=O)O)C(=O)N[C@H](C(=O)N[C@@H](CC(N)=O)C(=O)N[C@@H](CCCCN)C(=O)N[C@@H](CCC(N)=O)C(=O)N[C@H](C(=O)N[C@@H](CC(C)C)C(=O)N[C@@H](C)C(=O)N[C@@H](CCC(N)=O)C(=O)N[C@H](C(N)=O)C(C)C)[C@@H](C)CC)[C@@H](C)O)[C@@H](C)CC)[C@@H](C)CC)C(C)C)C(C)C) [peptide of SEQ ID NO: 147] |
| 0.49 | > 1000 | 9.07 | 7.4 | IVLSLD[dV]PIGLK([AEEA-AEEA-γGlu-C18 diacid])QILLKQERQKK[Aib]REQAEKNKRILERV-NH2 (N-terminus assumed; SMILES CC[C@H](C)[C@H](N)C(=O)N[C@H](C(=O)N[C@@H](CC(C)C)C(=O)N[C@@H](CO)C(=O)N[C@@H](CC(C)C)C(=O)N[C@@H](CC(=O)O)C(=O)N[C@@H](C(=O)N1CCC[C@H]1C(=O)N[C@H](C(=O)NCC(=O)N[C@@H](CC(C)C)C(=O)N[C@@H](CCCCNC(=O)COCCOCCNC(=O)COCCOCCNC(=O)CC[C@H](NC(=O)CCCCCCCCCCCCCCCCC(=O)O)C(=O)O)C(=O)N[C@@H](CCC(N)=O)C(=O)N[C@H](C(=O)N[C@@H](CC(C)C)C(=O)N[C@@H](CC(C)C)C(=O)N[C@@H](CCCCN)C(=O)N[C@@H](CCC(N)=O)C(=O)N[C@@H](CCC(=O)O)C(=O)N[C@@H](CCCNC(=N)N)C(=O)N[C@@H](CCC(N)=O)C(=O)N[C@@H](CCCCN)C(=O)N[C@@H](CCCCN)C(=O)NC(C)(C)C(=O)N[C@@H](CCCNC(=N)N)C(=O)N[C@@H](CCC(=O)O)C(=O)N[C@@H](CCC(N)=O)C(=O)N[C@@H](C)C(=O)N[C@@H](CCC(=O)O)C(=O)N[C@@H](CCCCN)C(=O)N[C@@H](CC(N)=O)C(=O)N[C@@H](CCCCN)C(=O)N[C@@H](CCCNC(=N)N)C(=O)N[C@H](C(=O)N[C@@H](CC(C)C)C(=O)N[C@@H](CCC(=O)O)C(=O)N[C@@H](CCCNC(=N)N)C(=O)N[C@H](C(N)=O)C(C)C)[C@@H](C)CC)[C@@H](C)CC)[C@@H](C)CC)C(C)C)C(C)C) [peptide of SEQ ID NO: 151] |
